{
  "source": "paper doi:10.1101/2022.02.08.479556",
  "target": "SARS-CoV-2 nucleocapsid protein N:G215C mutant (SARS-CoV-2) (UniProt P0DTC9)",
  "test": "AUC",
  "data": [
    {"substance": "SARS-CoV-2 nucleocapsid protein N:G215C mutant (from UniProt P0DTC9 1-419) (natural protein)", "values": [
      {"measurement": "Kd", "result": 3.3, "unit": "µM"}
    ]}
  ]
}
